Measurements reported in PMC12499447, “API5 Phosphorylation Promotes Antiviral Immunity by Inhibiting Degradation of Cytosolic RNA Sensor RLRs” (Advanced Science, 2025).

Tests used:
RIG‐I = RIG‐I (UniProt O95786); assay: co-IP; settings: reference: API5 wild type; sites S464
p62 = p62 (UniProt Q13501); assay: co-IP; settings: reference: API5 wild type; sites S464
MDA5 = MDA5 (UniProt Q9BYX4); assay: co-IP; settings: reference: API5 wild type; sites S464
His-SRPK1 = molecular target: T1, His-SRPK1 (human (amplified from HEK293T cells), UniProt Q96SB4 1-655); assay: pull-down; purified GST-API5 (20 ng) or GST (20 ng) incubated with His-SRPK1 (50 ng) at 4 °C for 4 h; captured on GST resin; washed five times with NP-40 lysis buffer; immunoblot; settings: both partners purified
T1 construct: SRPK1, full-length gene amplified from HEK293T cells, in pET-28a; also called pET-28a-SRPK1; source: E. coli BL21 (pLysS), purified (Ni-NTA)

## API5 (from UniProt Q9BZZ5) API5 S464A
RIG‐I
  binding against the reference: lost
p62
  binding against the reference: weaker
MDA5
  binding against the reference: lost

B1: GST-API5 (natural protein, human, UniProt Q9BZZ5 1-524, looked up)
chain: MPTVEELYRNYGILADATEQVGQHKDAYQVILDGVKGGTKEKRLAAQFIPKFFKHFPELADSAINAQLDLCEDEDVSIRRQAIKELPQFATGENLPRVADILTQLLQTDDSAEFNLVNNALLSIFKMDAKGTLGGLFSQILQGEDIVRERAIKFLSTKLKTLPDEVLTKEVEELILTESKKVLEDVTGEEFVLFMKILSGLKSLQTVSGRQQLVELVAEQADLEQTFNPSDPDCVDRLLQCTRQAVPLFSKNVHSTRFVTYFCEQVLPNLGTLTTPVEGLDIQLEVLKLLAEMSSFCGDMEKLETNLRKLFDKLLEYMPLPPEEAENGENAGNEEPKLQFSYVECLLYSFHQLGRKLPDFLTAKLNAEKLKDFKIRLQYFARGLQVYIRQLRLALQGKTGEALKTEENKIKVVALKITNNINVLIKDLFHIPPSYKSTVTLSWKPVQKVEIGQKRASEDTTSGSPPKKSSAGPKRDARQIYNPPSGKYSSNLGNFNYEQRGAFRGSRGGRGWGTRGNRSRGRLY
notes: API5, human, full-length gene amplified from HEK293T cells, in pGEX-4T-1; also called pGEX-4T-1-API5; source: E. coli BL21 (pLysS), purified (glutathione resin)
His-SRPK1
  binding result: binds
